# Measurements from US20250339501A1, “COMPOSITIONS AND METHODS FOR TREATING METABOLIC DISEASE” (The Regents of the University of California, priority 2021, published 2025).
# Entries after “also recorded” stand apart in the source; their conditions may differ. Where two headings read alike, the source gives them in different places.
# Columns and labels:
# C2C12 myotubes = assay: Dj1 release from muscle cells into culture medium; format: cell-based, mouse; details: for protein level of Dj1 in the media: C2C12 myotubes with or without CCCP, Tg; for muscle cell release of Dj1: in vitro (C2C12 myotubes) and ex vivo muscle
# Method: Seeded cells were cultured in 6-well plates for 24 hours prior to transfection. Transfections were performed using Lipofectamine 2000 and PLUS reagent according to manufacturer instructions (Invitrogen, Carlsbad, CA). Human HepG2 cells were cultured in DMEM/low media containing 10% fetal bovine serum with penicillin/streptomycin. Mouse AML12 cells were maintained in DMEM/F12, ITS supplement (Gibco, USA), 40 ng/ml dexamethasone, and 10% fetal bovine serum with penicillin/streptomycin.
# An adenovirus encoding mouse Dj1 was generated using the ViraPower Adenoviral Expression System (Invitrogen) according to manufacturer instructions. […] Entry clones were obtained by recombination of the purified DNA fragment with the pDONR221 vector using Gateway BP clonase II. Mouse Dj1 insert was transferred from the entry clones into the pAd/CMV/V5-DEST vector (Invitrogen) using the Gateway LR Clonase II enzyme mix. The recombinant adenoviral purified plasmid was used to generate adenoviral particles according to the manufacturer's instructions (Invitrogen). Adenoviral titer was determined using the AdenoX Rapid Titer Kit (Clontech).
# (§1) Mouse tissue and cell samples were pulverized in liquid nitrogen and homogenized in RIPA lysis buffer containing complete EDTA-Free protease (Roche) and Phosphatase Inhibitor Cocktail 2 (Sigma-Aldrich, St. Louis, MO). All lysates were centrifuged, clarified, and resolved by SDS-PAGE. […] Densitometric analyses were performed using BioRad Quantity One image software (Bio-Rad, Hercules, CA).
# (§2) Mouse serum Dj1 and CK were measured by mouse Park7/DJ-1 DuoSet ELISA (DY8136, R&D systems) and mouse CKMB/Creatine Kinase MB ELISA Kit (LS-F5745, LSBio) respectively. Mouse Serum AST and ALT were measured by AST activity assay kit (Sigma, MAK055) and ALT activity assay kit (Sigma, MAK052) respectively.
# Strenuous exercise increases the endoplasmic reticulum (ER) stress, which at an excessive level can lead to muscle damage (12). […] To determine the mechanisms that drive skeletal muscle releases of Dj1, ER stress markers were examined in skeletal muscles of the three different mouse models described above. […] To further validate muscle cells release of Dj1, in vitro studies were assessed.
# (§3) Extracellular vesicles are cell-derived membranous structures including exosomes and microvesicles bodies, which are enriched with proteins, lipids, DNA, and RNA (14). To examine whether Dj1 is released through the extracellular vesicle system, Dj1 levels were determined in the culture media of C2C12 myotubes that were treated with or without CCCP, Tg, exosome generation inhibitor GW4869, or exocytosis inhibitor Exo1. […] To visualize the release of Dj1 from muscle cells, time-lapse imaging was performed on C2C12 myocytes transfected with Dj1-GFP. […] To further determine which types of extracellular vesicles were enriched with Dj1, microvesicle bodies (MVBs) and exosomes from C2C12 culture media and CTX-treated mouse plasma were separated by differential centrifugation.
# C2C12 myocytes = assay: Time-lapse imaging of Dj1-GFP transfected C2C12 myocytes; format: cell-based, mouse
# Method: Before image analysis, raw .czi files were automatically processed into deconvoluted Airyscan images using Zen software. Time-lapse images were acquired at approximately 1 frame/second.
# as §3
# cleaved caspase 3 = details: C2C12 myocytes
# Method: as §1
# C57BL/6J mice = assay: Plasma Dj1 after intramuscular CTX injection; format: in vivo, mouse; details: 2 days post intramuscular administration
# Method: as §2
# Cardiotoxin (CTX) induces skeletal muscle injury and regeneration. To further validate the effect of muscle injury on circulating Dj1, C57BL/6J mice were injected intramuscularly with CTX, and plasma Dj1 levels were measured 2 days post-administration.
# NASH diet-fed mice = assay: tDj1 administration in NASH diet-fed mice
# Method: Animals were weaned 21 days after birth and had free access to food and water and were housed on 12 h light-dark cycle. C57BL/6J males were introduced to a normal diet (NC, Research Diets D15100601) or high-fat diet (HFD, Research Diets D12331), and maintained on a diet for the indicated time. […] NASH model mice were fed for up to 28 weeks with the NASH diet (Envigo, TD.120528) and 42% fructose (Sigma, F0127) in the water (1,2). […] Mice were raised in microisolator cages with a 12 h: 12 h light: dark cycle. All procedures were performed in accordance with the Guide for Care and Use of Laboratory Animals of the National Institutes of Health, and were approved by the Animal Subjects Committee of the University of California, Los Angeles.
# ASK1 = ASK1 phosphorylation immunoblot, in vitro and in liver of HFD-fed mice; parameters: species or system mouse; details: in vitro and in vivo; liver of HFD-fed WT mice
# Text: A wide variety of mechanisms activate the JNK pathway. […] Moreover, ASK1 is activated by various stresses, including oxidative stress, ER stress, calcium overload, and receptor-mediated inflammatory signals such as TNFα and lipopolysaccharide (LPS) (26,27). rDj1 administration suppressed both baseline and TNFα-induced ROS levels in HepG2 cells, which may contribute to reducing liver inflammation (FIG. 6F).
# p42 = p42 phosphorylation immunoblot in liver of HFD-fed mice; format: in vivo, mouse
# Text: (§4) As described above, Dj1 administration stimulates AMPK phosphorylation in the liver cells. However, elevated AMPK phosphorylation in vivo was not observed (data not shown). Numerous studies have reported that the c-Jun N terminal kinase (JNK) is critical to the development of steatosis and chronic liver injury in NAFLD (22-25). […] However, not all MAPK pathways were activated. For example, phosphorylation of p42 was not altered by tDj1 treatment (FIG. 6O). Both rDj1 and tDj1 suppressed TNFα and Anisomycin-induced JNK (p54 and p46) phosphorylation in human HepG2 and mouse AML12 liver cells, respectively (FIGS. 6C-6D).
# JNK [1] = assay: JNK phosphorylation immunoblot in liver of HFD-fed mice; format: in vivo, mouse
# Text: as §4
# AML12 cells = assay: TG and NEFA content in palmitate acid-treated AML12 cells; format: cell-based, mouse
# Method: Mouse myoblast cells (C2C12) were maintained in high glucose DMEM/high, 10% fetal bovine serum with penicillin/streptomycin. pRK5-Dj1-HA plasmid was purchased from Addgene (#29396). Seeded cells were cultured in 6-well plates for 24 hours prior to transfection. Transfections were performed using Lipofectamine 2000 and PLUS reagent according to manufacturer instructions (Invitrogen, Carlsbad, CA). Human HepG2 cells were cultured in DMEM/low media containing 10% fetal bovine serum with penicillin/streptomycin. Mouse AML12 cells were maintained in DMEM/F12, ITS supplement (Gibco, USA), 40 ng/ml dexamethasone, and 10% fetal bovine serum with penicillin/streptomycin. For in vitro experiments, HepG2 cells were treated with or without recombinant human Dj1 protein (Novus, NBC1-18334) in serum-free media containing 25 mM glucose, 200 μM palmitic acid, and 0.25% bovine serum albumin for an indicated time.
# (§5) Dj1 is a highly conserved protein that is ubiquitously expressed in most mammalian tissues. It belongs to the Dj1/ThiJ/PfpI family chaperones, and its expression is induced by oxidative stress (20,21). To determine whether the PfpI domain of Dj1 exerts a similar role as the full-length Dj1 protein (rDj1) in liver cells, truncated Dj1 (tDj1) comprising of only the PfpI domain was purified (FIG. 5O). HFD-fed mice were intravenous injected with rDj1 or tDj1 every other day for 14 days.
# JNK [2] = assay: Anisomycin-induced JNK phosphorylation in AML12 cells; format: cell-based; details: mouse AML12 liver cells
# Text: as §4
# HFD-fed mice = assay: rDj1 or tDj1 intravenous every other day for 14 days in HFD-fed mice; format: in vivo, mouse
# Method: C57BL/10cSn-Dmd^mdx/J (001801, mdx) and C57BL/10ScSnJ (000476, WT) mice were ordered directly from The Jackson Laboratory. Different ages of mdx and WT mice were obtained. Animals were weaned 21 days after birth and had free access to food and water and were housed on 12 h light-dark cycle. C57BL/6J males were introduced to a normal diet (NC, Research Diets D15100601) or high-fat diet (HFD, Research Diets D12331), and maintained on a diet for the indicated time. The HFD diet derives 58% of its kilocalories (kcal) from fat (soybean and coconut oil), 25.5% from carbohydrates (sucrose and maltodextrin), and 16.4% from protein (casein). NASH model mice were fed for up to 28 weeks with the NASH diet (Envigo, TD.120528) and 42% fructose (Sigma, F0127) in the water (1,2). The NASH diet is composed of 405.36 g/Kg sucrose and 12.5 g/Kg cholesterol. Recombinant mouse Dj1 protein (Novus, NBP2-59523) or truncated mouse Dj1 (tDj1, GenScript) protein was intravenously injected every day for 5 days or every other day for 2 weeks. Skeletal muscle-specific Park7 knockout mice were generated by crossing Park7 flox mice with Myl1-cre mice (JAX, #024713). Mice were raised in microisolator cages with a 12 h: 12 h light: dark cycle. All procedures were performed in accordance with the Guide for Care and Use of Laboratory Animals of the National Institutes of Health, and were approved by the Animal Subjects Committee of the University of California, Los Angeles.
# Cryosections (10-μm thick transverse sections of frozen muscle cut in a cryostat (Leica) at −20° C.) were subjected to hematoxylin & eosin (H&E) staining (10, 54). Liver tissues were fixed in phosphate-buffered 10% formalin and embedded in paraffin wax. Sections were cut and stained with H&E.
# as §2
# Plasma and liver NEFA, Cholesterol, and Triglyceride were analyzed by their respective kits (FUJIFILM Wako Diagnostics)
# About 80 mg of liver samples were homogenized and sonicated in PBS (pH 7.4) for lipid extraction. An internal standard mixture (ISTD) and CHCl3:methanol (2:1) were added to the samples before being vortexed, mixed, sonicated, and centrifuged. The supernatant containing the lipid was removed and dried, the lipids were resuspended in ethanol and then sonicated.
# as §5
# p38 = p38 phosphorylation immunoblot in liver of HFD-fed mice; format: in vivo, mouse
# Text: as §4
molecule,measurement,setting,value
O=C(/C=C/c1ccc(/C=C/C(=O)Nc2ccc(C3=NCCN3)cc2)cc1)Nc1ccc(C2=NCCN2)cc1 [GW4869],protein level of Dj1 in the media,C2C12 myotubes,significantly reduced
C/C=C(/C)C(=O)O[C@H]1C(C)=C2[C@H]([C@@H]1OC(=O)CCCCCCC)[C@@](C)(OC(C)=O)C[C@H](OC(=O)CCC)[C@@]1(O)[C@H]2OC(=O)[C@@]1(C)O [Thapsigargin],muscle cell release of Dj1,C2C12 myotubes,release Dj1
same,budding of vesicles from cells,"C2C12 myocytes; Dj1-GFP transfected C2C12 myocytes, time-lapse imaging",Robust budding of vesicles
COC(=O)c1ccccc1NC(=O)c1ccc(F)cc1 [Exo1],protein level of Dj1 in the media,C2C12 myotubes,significantly reduced
carbonyl cyanide m-chlorophenyl hydrazine [CCCP],Dj1 levels in the culture medium,C2C12 myotubes; C2C12 myocytes / myotubes,elevated
same,HA-Dj1 levels in the media,C2C12 myotubes; C2C12 myocytes transfected with HA-tagged Dj1,elevated
same,muscle cell release of Dj1,C2C12 myotubes,release Dj1
same,protein level of cleaved caspase 3,cleaved caspase 3,did not alter
same,budding of vesicles from cells,C2C12 myocytes,Robust budding of vesicles
Cardiotoxin [CTX],Dj1 in the plasma,C57BL/6J mice,increase
"tDj1: truncated mouse Dj1 comprising only the PfpI domain, residues 32-173 per b12, SEQ ID NO: 3 (GenScript) (protein, listed as Mus musculus) KVTVAGLAGKDPVQCSRDVMICPDTSLEDAKTQGPYDVVVLPGGNLGAQNLSESPMVKEILKEQESRKGLIAAICAGPTALLAHEVGFGCKVTTHPLAKDKMMNGSHYSYSESRVEKDGLILTSRGPGTSFEFALAIVE",TG levels in the liver,NASH diet-fed mice; NASH diet-fed mice,did not considerably reduce
same,fibrosis scores,NASH diet-fed mice; NASH diet-fed mice,significantly reduced
same,hepatic apoptosis (TUNEL assay),NASH diet-fed mice; NASH diet-fed mice,suppressed
same,liver ALT activity,NASH diet-fed mice; NASH diet-fed mice,robustly reduced
same,total cholesterol level in the liver,NASH diet-fed mice; NASH diet-fed mice,significantly suppressed
same,inflammatory gene expression,NASH diet-fed mice; liver of NASH diet-fed mice,significantly reduced
same,liver fibrosis gene expression,NASH diet-fed mice; liver of NASH diet-fed mice,significantly reduced
same,"protein levels of apoptosis markers (cleaved caspase 3, cleaved caspase 8, cleaved caspase 9, cleaved PARP)",NASH diet-fed mice; liver of NASH diet-fed mice,decreased
same,body weight,NASH diet-fed mice; mice on NASH diet for 28 weeks,significantly reduced
same,glucose tolerance,NASH diet-fed mice; mice on NASH diet for 28 weeks,improved
same,insulin tolerance,NASH diet-fed mice; mice on NASH diet for 28 weeks,improved
same,phosphorylation of apoptosis signal-regulating kinase 1 (ASK1),ASK1,reduced; also recorded: inhibits
same,phosphorylation of p42,p42,not altered
same,JNK (p46 subunit) phosphorylation,JNK [1],significantly reduced
same,TG levels,AML12 cells,reduced
same,Anisomycin-induced JNK (p54 and p46) phosphorylation,JNK [2],suppressed; also recorded: inhibits
same,level of TG in the liver,HFD-fed mice,significantly reduced
same,"liver histology, lipid accumulation",HFD-fed mice,less lipid accumulation
same,plasma ALT levels,HFD-fed mice,reducing
same,plasma AST levels,HFD-fed mice,reducing
same,p38 phosphorylation,p38,decreased
